Data reported in patent publication US9404087B2, “Insulin producing cells derived from pluripotent stem cells” (Kadimastem Ltd., priority 2010, dated 2016).

Assays:
Assay type in all cases: cell-based
Human insulin mRNA = Human insulin mRNA by RT-qPCR with TBP as reference
Procedure: (§1) Aliquots of the Presort culture and of EpCAM-MACS-separated fractions (from step 7), as well as of re-aggregated clusters (step 8) were analyzed. The number of cells was counted, using the Nucleocounter. After centrifugation at 350×g for 5 minutes, cell pellets were dissolved in M-PER (Mammalian protein extraction reagent, Pierce), typically using 0.1 ml M-PER for 2 million cells, and content of human insulin C-peptide was measured with an ELISA kit (Mercodia, Upsalh, Sweden, ultrasensitive c-peptide kit (minimal detection 5 pM) or Mercodia c-peptide ELISA (minimal detection 90 pM). Samples in M-PER were diluted 3 fold, or more in the kit buffer, and 20 μl of the ⅓ dilution were assayed. Results were expressed per mg total protein (as measured by Bradford assay) and per million cells (counted in a NucleoCounter). Other cell pellets were suspended in 0.7 ml buffer RLT (RNAeasy, Qiagen) per million cells, for RNA extraction. Human insulin mRNA was quantitated by RT-qPCR (Taq-Man, Applied Biosystems, Step One) using the TATA binding protein (TBP) gene as reference. In the same way, proteins and RNA were extracted from entire plates after scraping the cells with a rubber policeman.
Differentiation of hES cells towards a pancreatic lineage: The hES cell cultures were differentiated as detailed in Example 5 and FIG. 15, steps 1-8, and RNA extracted at different steps was subjected to RT-qPCR.
Human ES cells were differentiated according to the scheme illustrated in FIG. 22. Two modifications were made in the procedure detailed in Example 5. Thus, in step 2 and 3, the fetal calf serum was replaced by serum replacement (KOSR, Invitrogen), at the same concentrations (i.e. 2% in step 2, 0.2% in step 3). In addition, in step 5, Noggin (Preprotech) was added at 100 ng/ml. The EpCAM-MACS fractionation was performed as in Example 5.

human insulin C-peptide = experiment: Content of human insulin C-peptide by ELISA in cell fractions
Procedure: On day 20, the medium used in step III of Example 2 was modified to adjust the glucose concentration to 5.5 mM (referred to herein as DM7). For isolation of EpCAM^+ cells by magnetic cell sorting (MACS technology, Miltenyi Biotec), a 10 cm-diameter plate was washed with PBS^−/− (no Ca^++, no Mg^++). Cells were then dissociated by treatment with Accutase (Stempro, 2.5 ml/10 cm plate), for 10 minutes at 37° C., and pipetting up and down. The cells were collected in DM7 and an aliquot counted in a NucleoCounter (New Brunswick). Cells were centrifuged at 1,500 rpm (350×g) for 5 minutes and re-suspended in MACS buffer (PBS^−/− with 0.5% BSA, 2 mM EDTA), using 0.3 ml for 50 million cells. Magnetic beads conjugated to anti-EpCAM antibodies (Miltenyi Biotec—CD326 pluripotent stem cells microbeads) were added (0.1 ml beads for 50 million cells). After 30 minutes at 4° C., the cells were washed once in 50 ml of MACS buffer, centrifuged, and finally re-suspended in 0.5 ml MACS buffer (for a maximum of 10^8 cells). […]
as §1, with “Other cell pellets were suspended in 0.7 ml buffer RLT (RNAeasy, Qiagen) per million cells, for RNA extraction.” left out, “In the same way, proteins and RNA were extracted from entire plates after scraping the cells with a rubber policeman.” left out

human ES cells = experiment: Indirect immunofluorescence of definitive endoderm markers after Activin A treatment
Procedure: On day one, three wells of human ES cell colonies (grown on Corning 6×well plate for 4 days) detached by collagenase were collected into a 15 ml tube, and colonies washed twice by low speed centrifugation in differentiation medium A (DMEM/F12, 2% KOSR, 2 mM glutmine, 1×NEAA, 100 μM βMEtOH, 1 mM NaPyruvate and penicillin and streptomycin (PS)).
After all the hES clusters had been collected and washed, the clusters were suspended in 1.5 ml/well of differentiation medium A1, (i.e. differentiation medium A including 100 ng/ml recombinant human Activin A (Preprotech) and 25 ng/ml recombinant Wnt 3 (R&D), 2% knock-out serum replacement and 2 mg/ml bovine serum albumin (BSA, cell culture tested SIGMA)). 450-500 colonies/well were seeded in Costar 6×well plates which had been coated with 0.1% porcine gelatin (Sigma) 1 day before. Alternatively, about 3000 colonies were seeded on 10 cm diameter plates. Plates were left in the incubator (37° C., 5% CO2) for 2 days without medium change.
On day 3, the medium was changed to differentiation medium A2 (DMEM/F12, 2% KOSR, 2 mM glut, 1×NEAA, 100 μM βMEtOH, 1 mM NaPyr and 2% Fetal Calf Serum (FCS)) containing 100 ng/ml Activin A and 2 mg/ml BSA. At this stage, clusters still floated and many single cells were visible. The plates were tilted so that clusters fell to the bottom edge of the well and the old medium was removed leaving clusters in 300 μl medium that is completed with 1.2 ml of medium A2. The collected culture medium that contained a few clusters was centrifuged at 900 rpm for 5 minutes. The pellet was re-suspended in 1.5 ml medium A2 and added to one of the wells. On day 4, most clusters adhered to the plate and the culture medium was changed similarly as on day 3, to differentiation medium A3 (DMEM/F12, 2 mM glutamine, 1×NEAA, 100 μM βMEtOH, 1 mM NaPyr but with 0.2% FCS) that contained 100 ng/ml Activin A and 2 mg/ml BSA. Cells were left in the medium A3 for 2 days.
Cells were fixed (4% paraformaldehyde in Ca^2+ and Mg^2+ free PBS for 20 minutes), washed ×3 with PBS and blocked with 10% horse serum in PBS. The reaction with the primary antibody (Ab) was performed in 10% horse serum with or without 1% BSA. Secondary antibodies (Either donkey anti mouse; donkey anti rabbit; donkey or rabbit anti-goat that are conjugated with fluorescent tags, Alexa 488 or Alexa 566 (Molecular Probes/Invitrogen) or with Cy3/donkey anti rabbit DyLight 488 (Jackson laboratories). Pictures were taken with a CCD camera and processed with an imaging program. Mouse monoclonal anti Sox17 Ab (R&D) 10 μg/ml was used with 0.1% Triton X100. Rabbit polyclonal anti FoxA2 (ab40874) (Abcam) was used at the dilution of 1/1000 with 0.1% Triton X100.

[1] = five days Activin A conditioning, positive nuclei relative to DAPI nuclei (FIG. 1)

B1: Noggin: Noggin (Preprotech) added at 100 ng/ml in step 5 (protein, UniProt Q13253 28-232, looked up)
Noggin: QHYLHIRPAPSDNLPLVDLIEHPDPIFDPKEKDLNETLLRSLLGGHYDPGFMATSPPEDRPGGGGGAAGGAEDLAELDQLLRQRPSGAMPSEIKGLEFSEGLAQGKKQRLSKKLRRKLQMWLWSQTFCPVLYAWNDLGSRFWPRYVKVGSCFSKRSCSVPEGMVCKPSKSVHLTVLRWRCQRRGGQRCGWIPIQYPIISECKCSC
B1 was tested, and the “Ratio Insulin mRNA over TBP mRNA” value (Human insulin mRNA; Table 5 Expt 1, D 19 (EpCAM+)) was 0.7, the “Ratio Insulin mRNA over TBP mRNA” value (Human insulin mRNA; Table 5 Expt 1, D 19 (Presort)) was 0.6 and the “Ratio Insulin mRNA over TBP mRNA” value (Human insulin mRNA; Table 5 Expt 1, D 23 (EpCAM+)) was 0.7. For the same molecule, the “Insulin C-peptide” value (human insulin C-peptide; Table 4 Expt 1, D 19 (EpCAM+)) was 8.15 ng/mg protein, the “Insulin C-peptide” value (human insulin C-peptide; Table 4 Expt 1, D 19 (Presort)) was 2.9 ng/mg protein and the “Insulin C-peptide” value (human insulin C-peptide; Table 4 Expt 1, D 23 (EpCAM+)) was 17.5 ng/mg protein.

B2: Activin A: recombinant human Activin A (Preprotech), 100 ng/ml (protein, UniProt P08476 311-426, looked up)
Inhibin beta A chain: GLECDGKVNICCKKQFFVSFKDIGWNDWIIAPSGYHANYCEGECPSHIAGTSGSSLSFHSTVINHYRMRGHSPFANLKSCCVPTKLRPMSMLYYDDGQNIIKKDIQNMIVEECGCS
modifications: Inhibin beta A chain
In the case of B2, the “cells anti Oct4 positive” value (human ES cells; end of 5 days of Activin A treatment) is reported as 5%, the “cells expressing Sox17 and/or FoxA2” value (human ES cells; end of 5 days of Activin A treatment, 100 ng/ml) is reported as “about 75%” and the “yield of cells expressing FoxA2” value (human ES cells; [1]) is reported as 89%. For the same molecule, the “yield of cells expressing Sox17” value (human ES cells; [1]) was 98%.
